{
  "source": "patent US20170158767A1",
  "about": "(published 2017)",
  "binders": {"B1": {"name": "3G10 human monoclonal antibody (antibody, V domains shown)", "VH": "QVQLVQSGAEVKKPGASVKVSCKASGYTFTDYGFSWVRQAPGQGLEWMGWITAYNGNTNYAQKLQGRVTMTTDTSTSTVYMELRSLRSDDTAVYYCARDYFYGMDVWGQGTTVTVSS", "VL": "EIVLTQSPATLSLSPGERATLSCRASQSVSSYLVWYQQKPGQAPRLLIYDASNRATGIPARFSGSGSGTDFTLTISSLEPEDFAVYYCQQRSNWPRTFGQGTKVEIK", "notes": "Fully human IgG kappa from a KM mouse hybridoma; also called HuMAb 3G10"}, "B2": {"name": "1B12 human monoclonal antibody (antibody, V domains shown)", "VH": "QVQLVQSGAEVKKPGSSVKVSCKTSGDTFSSYAISWVRQAPGQGLEWMGGIIPIFGRAHYAQKFQGRVTITADESTSTAYMELSSLRSEDTAVYFCARKFHFVSGSPFGMDVWGQGTTVTVSS", "VL": "not shown", "notes": "Fully human IgG kappa from a KM mouse hybridoma"}, "B3": {"name": "10A5 human monoclonal antibody (antibody, V domains shown)", "VH": "QVQLVQSGAEVKKPGASVKVSCKASGYTFTSYDVHWVRQAPGQRLEWMGWLHADTGITKFSQKFQGRVTITRDTSASTAYMELSSLRSEDTAVYYCARERIQLWFDYWGQGTLVTVSS", "VL": "DIQMTQSPSSLSASVGDRVTITCRASQGISSWLAWYQQKPEKAPKSLIYAASSLQSGVPSRFSGSGSGTDFTLTISSLQPEDFATYYCQQYNSYPYTFGQGTKLEIK", "notes": "Fully human IgG kappa from a KM mouse hybridoma; also called HuMAb 10A5"}},
  "key": {"[1]": {"target": "T1, human PD-L1 expressed at the cell surface (human, UniProt Q9NZQ7 19-290)", "T1 construct": "whole, on cells; also called cell surface PD-L1; full-length human PD-L1 on transfected CHO cells", "T1 sequence (Q9NZQ7 19-290)": "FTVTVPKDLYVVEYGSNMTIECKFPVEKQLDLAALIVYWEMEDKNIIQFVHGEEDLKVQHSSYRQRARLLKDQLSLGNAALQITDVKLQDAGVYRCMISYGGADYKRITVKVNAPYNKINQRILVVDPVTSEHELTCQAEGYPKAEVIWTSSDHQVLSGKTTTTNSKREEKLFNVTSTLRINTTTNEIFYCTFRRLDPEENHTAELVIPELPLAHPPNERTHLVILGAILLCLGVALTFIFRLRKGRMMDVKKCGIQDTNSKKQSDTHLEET", "test": "flow cytometry on CHO cells transfected with human PD-L1 (FIG. 32A)", "description": "(§1) Chinese hamster ovary (CHO) cell lines that express recombinant human PD-L1 at the cell surface were developed and used to determine the specificity of PD-L1 human monoclonal antibodies by flow cytometry. CHO cells were transfected with expression plasmids containing full length cDNA encoding transmembrane forms of PD-L1. […] The cells were washed and binding was detected with a FITC-labeled anti-human IgG Ab. Flow cytometric analyses were performed using a FACScan flow cytometry (Becton Dickinson, San Jose, Calif.). The binding was compared to the parent CHO cell line. […] Binding was also tested using varying concentrations of an anti-PD-L1 antibody."}, "[2]": {"target": "T1, human PD-L1 expressed at the cell …", "test": "flow cytometry, serial dilutions on anti-CD3-activated human T cells", "description": "Human or monkey T cells were activated by anti-CD3 antibody to induce PD-L1 expression prior to binding with a human anti-PD-L1 monoclonal antibody. […] An isotype control antibody was used as a negative control. The cells were washed and binding was detected with a FITC-labeled anti-human Ig-kappa light chain Ab. Flow cytometric analyses were performed using a FACScalibur flow cytometer (Becton Dickinson, San Jose, Calif.)."}, "[3]": {"target": "T1, human PD-L1 expressed at the cell …", "test": "flow cytometry on CHO cells transfected with human PD-L1 (FIG. 32B)", "description": "as §1"}},
  "data": [
    {"binder": "B1", "values": [
      {"measurement": "binding result", "setting": "[1]", "result": "binds"}
    ]},
    {"binder": "B2", "values": [
      {"measurement": "binding result", "setting": "[2]", "result": "binds"}
    ]},
    {"binder": "B3", "values": [
      {"measurement": "binding result", "setting": "[3]", "result": "binds"}
    ]}
  ]
}
